Measured values: PMC10509710, “Development and validation of a purification system for functional full-length human SR-B1 and CD36” (The Journal of Biological Chemistry, 2023)

Target: oxidized low-density lipoprotein (oxLDL) (oxidized with CuSO4 (residues not told))
Assay: MST; Cy5-labeled receptor (RED-NHS, lysines) at constant 20 nM, ligand in a 16-point 1:1 dilution series; exchange buffer (50 mM Hepes pH 7.5, 150 mM NaCl, 0.025% LMNG, 0.005% CHS); 25 °C, 40% MST power; apparent Kd, one-site specific binding; molar values from average molecular weights (267.5 kDa HDL, 3500 kDa oxLDL)
Details: both partners purified

B1: human full-length cluster of differentiation 36 (CD36), glycosylated (receptor, UniProt P16671 1-472, looked up)
chain: MGCDRNCGLIAGAVIGAVLAVFGGILMPVGDLLIQKTIKKQVVLEEGTIAFKNWVKTGTEVYRQFWIFDVQNPQEVMMNSSNIQVKQRGPYTYRVRFLAKENVTQDAEDNTVSFLQPNGAIFEPSLSVGTEADNFTVLNLAVAAASHIYQNQFVQMILNSLINKSKSSMFQVRTLRELLWGYRDPFLSLVPYPVTTTVGLFYPYNNTADGVYKVFNGKDNISKVAIIDTYKGKRNLSYWESHCDMINGTDAASFPPFVEKSQVLQFFSSDICRSIYAVFESDVNLKGIPVYRFVLPSKAFASPVENPDNYCFCTEKIISKNCTSYGVLDISKCKEGRPVYISLPHFLYASPDVSEPIDGLNPNEEEHRTYLDIEPITGFTLQFAKRLQVNLLVKPSEKIQVLKNLKRNYIVPILWLNETGTIGDEKANMFRSQVTGKINLLGLIEMILLSVGVVMFVAFMISYCACRSKTIK
modifications: glycosylated (Sf9); labeled with Cy5 via lysine residues in the MST
notes: CD36, human, full length, 472 amino acids as printed; the methods print a C-terminal hemaglutinin A secretion signal and an N-terminal PreScission cut site, His10 and FLAG; In detergent micelles when purified; also called glycosylated CD36; source: Sf9 cells, baculovirus (MOI 5): on cells and in lysate; also purified (LMNG/CHS solubilisation, TALON cobalt resin, desalting)
With B1 the Kd was 343 ± 286 nM.
